Molecular target: CLDN18.2 (species not stated)
Test: affinity measurement, method not described

Kd: 4.17 nM
Substance: IMAB362 (Zolbetuximab), positive control antibody
